Measured values: a protein production outcome set (Wang et al. 2014)

Assay: label from the status in PepcDB records

Sequence | protein production
MPISNPCFTSFTQPIDGYTLPEKFTFPFCYEPHPLCELAAEELQRHLEAQQEWHHNFGLSGDKSNAIGKMFGVLLVKAPTGEIGYLSAFSGKIADSNHLPYFVPPVFDMLEEDGFFKTELAEITEINATIKQLEANPQLSHLATSIQSETTASLQQIEIQRQVMIEGRKSRKAQRAAAEITAQDGTEKSAEELEQLKVVLGKESVKEKNTLRDIKLIWDEKINALQCQLNELEDALNELKTKRKNLSNGLQKKLFQQYKFLNTHGIEKDLNDIFKDTPNQIPPAGSGECAAPKLLQYAFAHGFTPLALAEFWWGIAPKSEIRQHKKFYASCQSKCQPILGHMLDGIEMDENPLLINPAEGKDLEIVYEDEFMVVVNKPADFLSVPGKNIHDSVYARIQQRYPDATGGLIIHRLDMATSGLLVLGLTPKAHKRLQQQFINRTVEKRYTALLDGVLEQDEGLITLPMRGDLYDRPRQLVCFEHGKPAETTYQVIERKENKTKVYLYPKTGRTHQLRVHCAHYLGLNMPITGDGLYGKKANRLHLHAGYLSLIHPITKEPMEFNVEAEF | not failed
MEVAVEKAVAAAAAASAAASGGPSAAPSGENEAESRQGPDSERGGEAARLNLLDTCAVCHQNIQSRAPKLLPCLHSFCQRCLPAPQRYLMLPAPMLGSAETPPPVPAPGSPVSGSSPFATQVGVIRCPVCSQECAERHIIDNFFVKDTTEVPSSTVEKSNQVCTSCEDNAEANGFCVECVEWLCKTCIRAHQRVKFTKDHTVRQKEEVSPEAVGVTSQRPVFCPFHKKEQLKLYCETCDKLTCRDCQLLEHKEHRYQFIEEAFQNQKVIIDTLITKLMEKTKYIKFTGNQIQNRIIEVNQNQKQVEQDIKVAIFTLMVEINKKGKALLHQLESLAKDHRMKLMQQQQEVAGLSKQLEHVMHFSKWAVSSGSSTALLYSKRLITYRLRHLLRARCDASPVTNNTIQFHCDPSFWAQNIINLGSLVIEDKESQPQMPKQNPVVEQNSQPPSGLSSNQLSKFPTQISLAQLRLQHMQQQVMAQRQQVQRRPAPVGLPNPRMQGPIQQPSISHQQPPPRLINFQNHSPKPNGPVLPPHPQQLRYPPNQNIPRQAIKPNPLQMAFLAQQAIKQWQISSGQGTPSTTNSTSSTPSSPTITSAAGYDGKAFGSPMIDLSSPVGGSYNLPSLPDIDCSSTIMLDNIVRKDTNIDHGQPRPPSNRTVQSPNSSVPSPGLAGPVTMTSVHPPIRSPSASSVGSRGSSGSSSKPAGADSTHKVPVVMLEPIRIKQENSGPPENYDFPVVIVKQESDEESRPQNANYPRSILTSLLLNSSQSSTSEETVLRSDAPDSTGDQPGLHQDNSSNGKSEWLDPSQKSPLHVGETRKEDDPNEDWCAVCQNGGELLCCEKCPKVFHLSCHVPTLTNFPSGEWICTFCRDLSKPEVEYDCDAPSHNSEKKKTEGLVKLTPIDKRKCERLLLFLYCHEMSLAFQDPVPLTVPDYYKIIKNPMDLSTIKKRLQEDYSMYSKPEDFVADFRLIFQNCAEFNEPDSEVANAGIKLENYFEELLKNLYPEKRFPKPEFRNESEDNKFSDDSDDDFVQPRKKRLKSIEERQLLK | not failed
MQSYAADLIALGLLFLTGLAADQLGARSRLPRVTLLLICGLLAGSAGFDLIPESLAALYPIISVIALSMVAFLLGGELSLRTLSGHGRAIVVISVMVVLVTQLTVSAGLAMIGMPLAAALMVGALATATDPAATLDVIRQGRASGDFPRRLKGIVAIDDAWGVLLFGLVAVLAGAVEGNGSAHGLLGGALVEIAGSVALGLAVGLPGASLTGRLSGGEPLRIEALGLVFLTAGLSLWLDLSYLIAGMTAGAVIVNLAHHHKRAFREIEHIEWPFMIVFFILAGASLDLSALWAVGPLLMGYVALRVLGRVLGGWAGAALAATARGERPWYGPALLPQAGVAIGMALIAGDLFPQYADMITALAIGATVVFELAGPLAAAYALRRVRDSRDQSAA | failed
MNIPNLLTLFRFFLIPCFIFAFFSRSNDSLINSAIIFFIAGFTDILDGYIARKFNEITKYGTVMDPLADKLMLLTVLCCLTIKGYIPLLILLIMLAKEFSMIIIGVFLYGKNIIIPANIWGKLSTLIFYVAILFFTFSKFLGTYLLYIAILGAVVAYINYFLIFLSKYRQNATK | failed
MAASSPDSYISRRPYVTMGLTVAGVLVLVVATQLVEVLFTVFAGILLAVFLAGVTQELTEDTRLPRPLAVALTLIGLGGVLVGLWALAGPDISEQASALATLLPDAAERLASRIRTTVQRYGWMQRYVDPSQLLPPVSSVLGRVTNVFRDTLNLLVNGFIILFIGIYGGAAPQSYLDGVVQLVPPSSRPRARDVLSALGRALRWWLTGRLILMLIVGVLTAVGLKVVGIPSPIALGLLAALFSFVPYLGPVLSVLPALLVASLIGPTEVLYVILVYGAVQLLESYLISPLVQQQAVHIPPATVITAQFIGGVSAGAGGVLLATPFAIVVIVLVQTLYVEDVLGDEVSLLGEH | failed
MYVFFSKDYLSKQEQSIWEQSFLRGNLMKAVVIGAGEVGYHIAKFLSLTHDVIVIENDEDALRRADELDVQVVEGNGANADILASVLPDVDILVAVTGVDEVNIVACMTAKLILRAHPGWKETKTIARVSNPDYIDVPVTSRAQVGVDIMICPELALASEVAEVLSNPSAIDAEMFAGGKVQMMEFAIRPDNRLVGKRMQDIELEDCCIVSAIFRNNDIIIPHGDDFIKANDHMVVVGKPRAMADLENVFGNEGPHRNRILLIGCGIVGFYLAKIIDKDENADLKVIEYRKSRCIEVAEMLENALILNGDGTDVNLLREENIEDMDVVIAVTDNDEKNLLCSLLAKQMGAKKVIARADRSDYVPLFEMVGIDIAVSPREATVNEVLKLTMGKGIEALATIEGEKAEIIEYTASGQSKIVGKPLSKIKFPKGAIVTMVVHDDDVIIPRGEFIIREGDRVIIFALSSAVRSVEKLFK | failed
MTNAFSEELALEAAGLDAIFGKDFKAEETTTGHVRWSVPLSHNGVELELAFLLDSAYPLDSEPQVRVTCKEGLSLRAVRELEGHLQKVAAENRGSPSAYLLYTAAQDWIDTHDRREAAEAISATIASTRLSAREPDSAGTGTTFETKAESFTQLVEHETLEHATIDRTLGTPVTPETFAAWKQEFDKYLLENGILDIANNADIELDASQGGWKGNSRRKPTGRELFTMHREMFVDDFEESDQCESTASGACDTQGSELAEHVDASLFLS | failed
LYLAGIGQYAALLEAGFARARSAEETVRLLVTSYIDWVVANPDWARFILHSRGRVEAGELGERLRADNQAHFARIHAALAGYRAEGLFREMPDDCFASVVIGPAHDLARQWLAGRTRVALADCRELLAQVAWDSVRAA | not failed
MSLTRTQPVELVTMVMVTDPETQRVLVEDKVNVPWKAGHSFPGGHVEVGEPCATAAIREVFEETGLRLSGVTFCGTCEWFDDDRQHRKLGLLYRASNFTGTLKASAEGQLSWLPITALTRENSAASLPEFLQVFTGTASTLVSDSWNGNLRIDEGHHHHHH | not failed
MQMSMLTRLHYFNCVVETGSISKASRIFDVQPSSISRQLTALEKELGVLLLKRTSRNIGLTEAGQTYYKYSQKIVSDLDEARCAVNDLQQKPKGNLKVSMAVGFAECCILPMIPTFTKLYPEINLELEMTGRVVDLVEENVDVAIRTGRLRDSNLIALKLTSNNFLLCASPQYITEHGTPKSPFNLTDFECIRYEYAGWRDWYLMNDKPTKLTIKSGLTVRSINGQKQLILNHAGLALMPKWSVINELDNGTLVQVLEQNIFSPYESMSSTYAIYLKRELISPKVRVFIDFIKDHIDYNS | failed
MKEVTPRFVELGQVSAIRTEPEIAYRSNQGVTRQRQQTKVFKLVSTYDKVAVKNAIRAAYRQVFERDLEPYIINSEFTALESKLSNNEINVKEFIEGLGTSELYMKEFYAPYPNTKVIEMGTKHFLGRAPLNQKEIQQYNQILASQGLKAFIGAMVNGMEYLQTFGEDTVPYRRFPTLPAANFPNTERLYNKLEHHHHHH | not failed
MIVIEKLTVDMARGVENNLEGLQIFVAVAEAGGFTAAAERLGMTKANVSLQVGRLEAQLGATLFTRTTRRVKLTEAGQALYLDAQPALAALRDALLQAGHGAAELSGTLRLTAPVSHMAESVAPAATQFIRRHPGLQLELHAIDRMVDLVAEGMDLAIRLGTLRDSSLRALKLGEFAQQLVASPAYLRERGMPAHPGELAGHDWVALTLLKTPLTWRFAGAGGAEETVRMRARIKVDSAASLRSLLLAGAGMSVLDSFSVQEDLRQGRLIHLLPQWTLPKGGVYAVFPPGRHAPAAARAFVEFYRVLLARPV | failed
MPSGQEGLDKFHNLNKGKTMFMQRLITTLILVPLVLLAIFYAPSWILWGVVLVILLLAGMECFKLIPVDNLTVQACFLIFLLMCFWACGYFYSYWLSVGLLVWLLNGLAILTYPRSQNYWGYPIVVAIASLILLPLFTQSLMQISFLQQGKELLVYLLFLIWASDIGAYLTGKQWGKHKLIPKVSPGKSWEGVTGGVILAMIVATLGYYYFIPYSIYIWFGLALSTVVISIFGDLFISILKRRCQLKDTGNIIPGHGGILDRLDSLIAALPWFYFGLTYIPLGI | failed
MDLSLLKALSEADAIASSEQEVRQILLEEAARLQKEVRFDGLGSVLIRLNESTGPKVMICAHMDEVGFMVRSISREGAIDVLPVGNVRMAARQLQPVRITTREECKIPGLLDGDRQGNDVSAMRVDIGARTYDEVMQAGIRPGDRVTFDTTFQVLPHQRVMGKAFDDRLSCYLLVTLLRELHDAELPAEVWLVASSSEEVGLRGGQTATRAVSPDVAIVLDTACWAKNFDYGAANHRQIGNGPMLVLSDKSLIAPPKLTAWIETVAAEIGVPLQADMFSNGGTDGGAVHLTGTGVPTLVMGPATRHGHCAASIADCRDILQMEQLLSALIQRLTRETVVQLTDFR | not failed
MSSNECFKCGRSGHWARECPTGGGRGRGMRSRGRGGFTSDRGFQFVSSSLPDICYRCGESGHLAKDCDLQEDACYNCGRGGHIAKDCKEPKREREQCCYNCGKPGHLARDCDHADEQKCYSCGEFGHIQKDCTKVKCYRCGETGHVAINCSKTSEVNCYRCGESGHLARECTIEATA | not failed
ALQDRTQFSDRDLATLKKYWDNGMTSLGSVCREKIEAVATELNVDCEIVRTWIGNRRRKYRLMGIEV | not failed
MDEMRPPPRSRTIYLLPNLFTTAGLFSGFYAIIAAANGQFVQAAMAVFVAAVMDGLDGRVARLTNTSSEFGVQYDSLADLVSFGMAPALVMYHWSLSALKYDSSVMGRVGWSAAFLYAACAALRLARFNTQVGVVDKRWFIGLASPAAAGLMMSFVWAFADDSLGFDGEQLRYVALAVTVVSALLMVSRIRFWSFKGGARGPRADRVPFLALAIATVVIALLVIDLARSLLVIGVLYALSGPLMWLWRRWRRVPELP | failed
LAKILGMDSDGLNRLECFDISHTQGEATIASCVVYDEQNIQPSQYRRYNITTAKPGDDYAAMREVLTRRYGKMQEAEANGETVKWPDAVLIDGGKGQIGVAVSVWEELGLHIPLVGIAKGPERKAGMEELILPFTGEVFRLPPNSPALHLLQTVRDESHRFAI | failed
MCTGTKSFFLLQRFKLKEDVTMEQKPVLDVNEVPKPGKWLFLSIQHLFAMFGSTVLVPFLTGLNPSVALISSGLGTLAFLLITKGQVPAYLGSSFAFIAPIITAKTAGGPGAAMLGGLLAGLVYILISLGIKKSGSEWIMKLLPPIVVGPVVMVIGLALAHTAVNMAMNGADGKYSFTHFSVALVTLAITIICSIFGRGFFSIIPVLLGIIGGYIFAYFQGLVDLKPVAEAKWFVVPDFTVPFVTYTPEFSWKIVLLMVPVALVTISEHIGHQIVLGNVIKRDLIEKPGLHRSIFGDGVATLIASLIGGPPNTTYGENIGVLAITRAYSVYLFIGSAVFAIMFGFIGKISALIHSIPTPVMGGVSILLFGVIASSGLRMMVDDKTDLSDKRNLMIASVILVIGIGGAVLHVGESFQVEGMALAAIVGVLLNLLLPETKQIKQSKQIAS | failed
MIGFLTDWGLKSHYVGVAKAVIKRINPSAEIIDITHEVEPFNVRKASHVLYRASLDFPPSTVFLVVVDYGVGTSRKAIVMKTKNDQYFVAPDNGVLTVVAEEYGVAEIREIENRELFYKKNPSFTFHGRDIFAPVAAHLDMGLPLERVGDRLLSYEVLKMRKPVVENEKVIGEVAIVDTFGNVSTNIPFDLFLKLSVDFDDVVRVRVGRKEFKAAVAKAFGDVDTGELLVHPDSAGFLEIAVNLGDASQVLSVKEGDEIEICR | not failed
